Measured values: publication PMC12624790

Target: His6-3C-SUMO-Sec22 TMD-thrombin-HiBiT

B1: Δ1-32 Msp1 (enzyme)
chain: DVESGPLSGKSRESKAKQSLQWEKLVKRSPALAEVTLDAYERTILSSIVTPDEINITFQDIGGLDPLISDLHESVIYPLMMPEVYSNSPLLQAPSGVLLYGPPGCGKTMLAKALAKESGANFISIRMSSIMDKWYGESNKIVDAMFSLANKLQPCIIFIDEIDSFLRERSSTDHEVTATLKAEFMTLWDGLLNNGRVMIIGATNRINDIDDAFLRRLPKRFLVSLPGSDQRYKILSVLLKDTKLDEDEFDLQLIADNTKGFSGSDLKELCREAALDAAKEYIKQKRQLIDSGTIDVNDTSSLKIRPLKTKDFTKKLRMDATSTLSSQPLD
Q: With B1 as the binder, how does the percent of substrate extracted from standard liposomes by Msp1 with ATP (split-luciferase extraction assay, 30 min, 30 °C) read?
A: The percent of substrate extracted from standard liposomes by Msp1 with ATP (split-luciferase extraction assay, 30 min, 30 °C) was 10%.
